Biological target: CFP
Assay: FRET or BRET; acceptor photobleaching FRET in live C. crescentus cells on 1 % agarose pads; YFP (acceptor) bleached for 20 s at 532 nm, increase of CFP (donor) emission recorded; cells grown in M2G, 0.3 % xylose for 1 h; apparent FRET efficiency, above 0.5 % taken as an interaction, above 1 % as a strong one

Q: For YFP, which apparent FRET efficiency is on record?
A: The apparent FRET efficiency was < 0.5%.

— paper PMC3836487
